Source: patent US20090275124A1 (DYAX, published 2009)

B1: 539C-M0016-E11 (Fab, V domains shown)
VH: EVQLLESGGGLVQPGGSLRLSCAASGFTFSFYVMDWVRQAPGKGLEWVSGIGPSGGSTDYADSVKGRFTISRDNSKNTLYLQMNSLRAEDTAVYYCTRIRYDSSGYPTDAFDIWGQGTMVTVSS
VL: DIQMTQSPATLSLSPGERATLSCRASQSVSSYLAWYQQKPGQAPRLLIYDASNRATGIPARFSGSGSGTDFTLTISSLEPEDFAVYYCQQRSNWPLTFGGGTKVEIKR
notes: It was tested as Fab on phage, as soluble Fab, and biotinylated in the ECL assay
B2: 539C-M0021-E01 (Fab, V domains shown)
VH: EVQLLESGGGLVQPGGSLRLSCAASGFTFSVYPMIWVRQAPGKGLEWVSYISSSGGQTWYADSVKGRFTISRDNSKNTLYLQMNSLRAEDTATYYCARGDDYDSSGPDYWGQGTLVTVSS
VL: DIQMTQSPSSLSASEGDRITLTCRASQSISIYLNWYQQKPGRAPKLLMYAATTLQSGVPSRFSGSGSGTDFTLTISGLRPEDFATYYCQQSYDIPLTFGGGTKVEIKR
notes: It was tested as Fab on phage and as soluble Fab
B3: 539C-R0010-B06 (Fab, V domains shown)
VH: EVQLLESGGGLVQPGGSLRLSCAASGFTFSEYQMNWVRQAPGKGLEWVSSIYSSGGGTAYADSVKGRFTISRDNSKNTLYLQMNSLRAEDTAVYYCAKDQGDGYNYGVGLDYWGQGTLVTVSS
VL: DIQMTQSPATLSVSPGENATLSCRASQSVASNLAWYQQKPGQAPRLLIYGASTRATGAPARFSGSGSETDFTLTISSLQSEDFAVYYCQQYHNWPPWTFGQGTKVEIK
notes: A Fab from the phage display library with a kappa light chain; Only the starts of the constant regions are printed (RTVAAPS)
B4: 539C-R0010-C05 (Fab, V domains shown)
VH: EVQLLESGGGLVQPGGSLRLSCAASGFTFSGYGMGWVRQAPGKGLEWVSYIVPSGGATDYADSVKGRFTISRDNSKNTLYLQMNSLRAEDTAVYYCARAYYYDSSGFDIWGQGTMVTVSS
VL: DIQMTQSPSSLSASVGDRVTITCLPSQDISVYLNWYQQKPGEAPKLLISATSDLQSGVPSRFGGSGYGTDFSLTITSLQREDFATYYCQQSYSLPFTFGGGTRVEIK
notes: A Fab from the phage display library with a kappa light chain; Only the starts of the constant regions are printed
B5: 539C-R0010-C06 (Fab, V domains shown)
VH: EVQLLESGGGLVQPGGSLRLSCAASGFTFSSYNMAWVRQAPGKGLEWVSVIVPSGGLTGYADSVKGRFTISRDNSKNTLYLQMNSLRAEDTAVYYCARERGGFYSSGWYRYWFDPWGQGTLVTVSS
VL: DIQMTQSPSSLSASVGDRVTITCRASQNINTFLNWYQQKPGKAPKLLIYGASSLQSGVPSRFSGSGSGTDFTLTISSLQPEDFATYYCQQSSDALVYNFGQGTKLEIK
notes: as for B4
B6: 539C-R0010-D06 (Fab, V domains shown)
VH: EVQLLESGGGLVQPGGSLRLSCAASGFTFSDYSMYWVRQAPGKGLEWVSYISSSGGNTEYADSVKGRFTISRDNSKNTLYLQMNSLRAEDTAMYYCATTPSIWLGDLLENGPYWGQGTLVTVSS
VL: QYELTQPHSVSESPGKTVTISCTRSNGTIDNSFVQWYQQRPGSAPTTVIYEDTQRPSGVPDRFSGSIDSSSNSASLTISGLKTEDEADYYCQSYDSTNRGVFGGGTKLTVL
notes: A Fab from the phage display library with a lambda light chain; Only the starts of the constant regions are printed (GQPKAAP)
B7: 539C-R0010-E06 (Fab, V domains shown)
VH: EVQLLESGGGLVQPGGSLRLSCAASGFTFSDYWMFWVRQAPGKGLEWVSGIGPSGGIISYADSVKGRFTISRDNSKNTLYLQMNSLRAEDTAVYYCAKYGDYVSGFDYWGQGTLVTVSS
VL: QSALTQPASVSGSPGQSITISCTGTSSDVGGYKLVSWYQQHPGKVPKLIISEVSYRPSGVSNRFSGSKSGNAASLTISGLQAEDEADYYCSSYTSTSTWVFGGGTKLTVL
notes: A Fab from the phage display library with a lambda light chain; Only the starts of the constant regions are printed
B8: 539C-R0010-F05 (Fab, V domains shown)
VH: EVQLLESGGGLVQPGGSLRLSCAASGFTFSWYAMVWVRQAPGKGLEWVSGISPSGGLTSYADSVKGRFTISRDNSKNTLYLQMNSLRAEDTAVYYCARKQMSPDYYYGMDVWGQGTTVTVSS
VL: QSVLTQPPSVSVAPGQTATISCEGDNIGSKSVHWYQQRPGQAPVLVVYDDYDRPSGIPERFSGFNSGNTATLTIYRVEAGDEADFYCQVRDSRTEERVFGGGTKLTVL
notes: as for B7
B9: 539C-R0010-F06 (Fab, V domains shown)
VH: EVQLLESGGGLVQPGGSLRLSCAASGFTFSDYHMSWVRQAPGKGLEWVSGISSSGGETFYADSVKGRFTISRDNSKNTLYLQMNSLRAEDTAVYYCASGSHRDGYNLGYFDYWGQGTLVTVSS
VL: DIQMTQSPASLSASVGDRVTITCQASRDIGEYLNWYQQKAGKPPKLLISDATTLETGVPSRFSGTGSGTEFLFTISSVEPEDFATYYCQQYDDLTWISFGPGTRLDVK
notes: as for B4
B10: 539C-R0004-G04 (Fab, V domains shown)
VH: EVQLLESGGGLVQPGGSLRLSCAASGFTFSDYDMHWVRQAPGKGLEWVSGISPSGGWTWYADSVKGRFTISRDNSKNTLYLQMNSLRAEDTAVYYCARDWYSSGLDYWGQGTLVTVSS
VL: QYELTQPPSVSVAPGQTARIICGGNDIGSKGVHWYHQKAGQAPVLLVYDNTDRPSGIPERFSGSNSGNTAALTITRVEAGDEADYFCQVWDSTGEHAVFGGGTKLTVL
notes: A Fab from the phage display library with a lambda light chain; Only the starts of the constant regions are printed; The VL is built from the FR/CDR columns because the joined LV-AA print (r109-r111) reads ADYEC where LV-FR3 reads ADYFC

Each binder was assayed against T1, DX-2400 (assay: phage ELISA).
T1 construct: Only the variable domains are printed (joined from rows r3-r12 and r17-r26); It was biotinylated for phage selection; also called DX-2400 IgG; fully human monoclonal anti-MMP-14 antibody
Source text: Three rounds of selection were done against biotinylated DX-2400 after depleting the library using biotinylated-DX-2300 IgG (control antibody that binds unrelated target) and biotinylated matched Vk Fab (371L-X002-A03) (isotype matched control) immobilized on streptavidin magnetic beads. […] Forty-nine unique phage clones which had distinct heavy chains were secondarily screened by phage ELISA and ranked for specific binding to DX-2400. Later 45 soluble Fabs were expressed, purified and screened for non-specific binding to 5% human, cyno, rat, and mouse serum antibodies by using Fab as capture reagent and detecting with alkaline phosphatase-conjugated mouse anti-human Fc gamma-specific antibody.

Row | Binder | binding result
1 | B1 | binds

What follows are binders tested against T1, DX-2400 (assay: phage display selection and ELISA screening).
Source text: Anti-idiotypic Fabs for DX-2400 were generated by phage selection and screenings using DX-2400 as a target. […] Forty nine were distinct as determined by DNA sequencing. These 49 unique clones were screened as phages and sFabs (soluble Fabs) in 5% pooled normal serum matrices (human, mouse, rat and cynomolgus monkey). Top 10 unique clones were ranked according to the following criteria: strong binding to DX-2400, weak binding to DX-2300, low-non specific binding to streptavidin and Fab control.

Row | Binder | binding result
2 | B2 | binds
3 | B3 | binds
4 | B4 | binds
5 | B5 | binds
6 | B6 | binds
7 | B7 | binds
8 | B8 | binds
9 | B9 | binds
10 | B10 | binds
